± gives the standard deviation of the averaged measurements.
Columns and labels:
Saccharomyces cerevisiae [1] = test: protein stability index of tFT-peptide fusion (C-terminal peptide) (PSI (0-1 scale)); higher = more stable (slower turnover)
Experimental: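 MPS profiling in S. cerevisiae of the tFT-X12 degron library: putative degron peptides plus stable controls, 12 aa, fused to the C-terminus of a sfGFP-mCherry timer. Cells are FACS-sorted into 8 mCherry/sfGFP bins and deep-sequenced. PSI runs from 0 (unstable) to 1 (stable). Backgrounds are wild type, das1Δ and doa10Δ at 30 °C, and wild type, das1Δ, cdc34-1 and cdc53-1 at 37 °C; 2-3 technical replicates each.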

Saccharomyces cerevisiae [2] = test: as above; conditions: genetic background: wild type; temperature: 30 C
[3] = genetic background: cdc34-1, temperature: 37 C
[4] = genetic background: cdc53-1, temperature: 37 C
[5] = genetic background: das1 deletion, temperature: 30 C
[6] = genetic background: das1 deletion, temperature: 37 C
[7] = genetic background: doa10 deletion, temperature: 30 C
[8] = genetic background: wild type, temperature: 30 C
[9] = genetic background: wild type, temperature: 37 C
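Note: PSI is a weighted mean of sequencing reads over stability bins, variants kept only with over 10 reads, mCherry proximal and sfGFP distal, peptide attached via GGGS linker.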

Sequence | protein stability index (Saccharomyces cerevisiae [1]; [3]) | protein stability index (Saccharomyces cerevisiae [1]; [4]) | protein stability index (Saccharomyces cerevisiae [1]; [5]) | protein stability index (Saccharomyces cerevisiae [1]; [6]) | protein stability index (Saccharomyces cerevisiae [1]; [7]) | protein stability index (Saccharomyces cerevisiae [1]; [8]) | protein stability index (Saccharomyces cerevisiae [1]; [9]) | protein stability index (Saccharomyces cerevisiae [2])
AAVQVCVLLLLL | 0.366 ± 0.029 | 0.476 ± 0.032 | 0.341 ± 0.037 | 0.521 ± 0.014 | 0.302 ± 0.0072 | 0.337 ± 0.017 | 0.497 ± 0.014 | 0.414 ± 0.0057
ACSRKPIWVTWL | 0.666 ± 0.057 | 0.747 ± 0.0079 | 0.648 ± 0.023 | 0.732 ± 0.016 | 0.259 ± 0.0057 | 0.276 ± 0.058 | 0.51 ± 0.031 | 0.35 ± 0.065
AFLLVLFCCVSC | 0.241 ± 0.044 | 0.258 ± 0.0057 | 0.252 ± 0.023 | 0.3459 ± 0.0017 | 0.229 ± 0.0086 | 0.225 ± 0.023 | 0.303 ± 0.01 | 0.298 ± 0.018
AFLWSLFVFFRF | 0.254 ± 0.056 | 0.183 ± 0.0084 | 0.31 ± 0.035 | 0.355 ± 0.0011 | 0.421 ± 0.017 | 0.269 ± 0.042 | 0.363 ± 0.018 | 0.393 ± 0.085
AFVVPLFLCCCG | 0.1836 ± 0.0015 | 0.165 ± 0.013 | 0.212 ± 0.025 | 0.2768 ± 0.0025 | 0.184 ± 0.014 | 0.209 ± 0.014 | 0.235 ± 0.0042 | 0.255 ± 0.0048
AFYLCLYFMPVS | 0.454 ± 0.026 | 0.548 ± 0.036 | 0.371 ± 0.028 | 0.503 ± 0.012 | 0.358 ± 0.032 | 0.367 ± 0.029 | 0.52 ± 0.0093 | 0.4375 ± 0.0033
AGAFRIVWWALR | 0.652 ± 0.034 | 0.6935 ± 0.00096 | 0.578 ± 0.027 | 0.711 ± 0.0098 | 0.586 ± 0.02 | 0.578 ± 0.015 | 0.68 ± 0.014 | 0.528 ± 0.073
ALFLLWVVMHDV | 0.2376 ± 0.0022 | 0.337 ± 0.021 | 0.247 ± 0.036 | 0.421 ± 0.018 | 0.195 ± 0.024 | 0.219 ± 0.035 | 0.397 ± 0.022 | 0.343 ± 0.011
ALLWEFVPCSVR | 0.521 ± 0.032 | 0.52 ± 0.0073 | 0.354 ± 0.036 | 0.56 ± 0.0061 | 0.3287 ± 0.0015 | 0.375 ± 0.022 | 0.5347 ± 0.0023 | 0.453 ± 0.015
ALRGLWFPFSCL | 0.66 ± 0.023 | 0.765 ± 0.0018 | 0.68 ± 0.024 | 0.8093 ± 0.0029 | 0.168 ± 0.032 | 0.193 ± 0.028 | 0.283 ± 0.01 | 0.393 ± 0.022
ALRLPPPPFSLY | 0.677 ± 0.045 | 0.757 ± 0.025 | 0.561 ± 0.05 | 0.72 ± 0.035 | 0.174 ± 0.0065 | 0.237 ± 0.036 | 0.461 ± 0.023 | –
ALSGLARFIVCH | 0.308 ± 0.0074 | 0.358 ± 0.019 | 0.272 ± 0.043 | 0.4268 ± 0.0034 | 0.2054 ± 0.0015 | 0.243 ± 0.031 | 0.392 ± 0.016 | 0.428 ± 0.026
ALVGEVLWFQLV | 0.684 ± 0.039 | 0.7569 ± 0.006 | 0.651 ± 0.023 | 0.749 ± 0.013 | 0.317 ± 0.0039 | 0.357 ± 0.034 | 0.586 ± 0.029 | 0.471 ± 0.0021
APLLPPALALTC | 0.533 ± 0.029 | 0.516 ± 0.038 | 0.389 ± 0.034 | 0.5268 ± 0.0035 | 0.3512 ± 0.00062 | 0.407 ± 0.028 | 0.484 ± 0.02 | 0.505 ± 0.025
APPSFPPLLLLS | 0.664 ± 0.028 | 0.697 ± 0.038 | 0.6054 ± 0.002 | 0.71 ± 0.016 | 0.254 ± 0.018 | 0.286 ± 0.017 | 0.499 ± 0.034 | –
AQCRGGGLSGVG | 0.572 ± 0.023 | 0.6409 ± 0.0041 | 0.566 ± 0.016 | 0.615 ± 0.014 | 0.57 ± 0.013 | 0.562 ± 0.011 | 0.603 ± 0.02 | –
ARGVAAAFVSGF | 0.696 ± 0.043 | 0.7725 ± 0.0057 | 0.657 ± 0.03 | 0.746 ± 0.016 | 0.661 ± 0.023 | 0.653 ± 0.0078 | 0.725 ± 0.03 | 0.595 ± 0.23
ARRGHNCAAVFL | 0.6953 ± 0.0068 | 0.7426 ± 0.0071 | 0.666 ± 0.026 | 0.7447 ± 0.0047 | 0.65 ± 0.022 | 0.663 ± 0.024 | 0.718 ± 0.0074 | 0.643 ± 0.3
ARTWVVLLICGH | 0.4159 ± 0.0012 | 0.479 ± 0.025 | 0.355 ± 0.032 | 0.563 ± 0.04 | 0.28 ± 0.0056 | 0.328 ± 0.019 | 0.531 ± 0.045 | 0.423 ± 0.033
ASWRYMFPVTLG | 0.576 ± 0.031 | 0.574 ± 0.045 | 0.555 ± 0.039 | 0.685 ± 0.031 | 0.383 ± 0.021 | 0.306 ± 0.039 | 0.4618 ± 0.0041 | 0.367 ± 0.032
AVCVVVMAVFVG | 0.339 ± 0.056 | 0.4098 ± 0.0026 | 0.297 ± 0.028 | 0.417 ± 0.012 | 0.293 ± 0.022 | 0.3 ± 0.012 | 0.397 ± 0.021 | 0.3646 ± 0.0028
CASVCCFFAWIV | 0.571 ± 0.028 | 0.623 ± 0.011 | 0.46 ± 0.046 | 0.5941 ± 0.0019 | 0.299 ± 0.017 | 0.323 ± 0.0068 | 0.4749 ± 0.00052 | 0.416 ± 0.06
CCVFFLLCLSLF | 0.419 ± 0.016 | 0.44 ± 0.024 | 0.341 ± 0.01 | 0.469 ± 0.023 | 0.353 ± 0.012 | 0.313 ± 0.0084 | 0.4223 ± 0.0038 | 0.354 ± 0.044
CFFGFRAGLFLG | 0.507 ± 0.0082 | 0.7205 ± 0.0047 | 0.593 ± 0.018 | 0.754 ± 0.052 | 0.176 ± 0.002 | 0.155 ± 0.0076 | 0.247 ± 0.072 | 0.214 ± 0.016
CFFVSLFFYIDC | 0.207 ± 0.055 | 0.296 ± 0.0032 | 0.215 ± 0.021 | 0.392 ± 0.0061 | 0.191 ± 0.014 | 0.203 ± 0.042 | 0.35 ± 0.0022 | 0.323 ± 0.011
CFGSALLKCWLC | 0.602 ± 0.037 | 0.726 ± 0.018 | 0.665 ± 0.013 | 0.7708 ± 0.0038 | 0.299 ± 0.002 | 0.303 ± 0.032 | 0.44 ± 0.0044 | 0.406 ± 0.035
CFLSWSLRFFIL | 0.387 ± 0.094 | 0.507 ± 0.022 | 0.482 ± 0.031 | 0.554 ± 0.034 | 0.132 ± 0.0019 | 0.118 ± 0.0054 | 0.139 ± 0.013 | 0.206 ± 0.011

— the supplement of paper PMC10724198
